Starred links: 1 amine or outer side, 2 acyl side, 3 side chain; linkers in the order of their positions; H or OH if unused. Positions of bridges follow the written chain, without caps; N, C: chain ends. Non-standard residues stand in square brackets, D forms with d. Primed or numbered codes have the meaning given here. *: point of attachment. PyrS2″ = (S)-3-amino-1-((pent-4-en-1-yloxy)carbonyl)pyrrolidine-3-carboxylic acid (stapling residue), C=CCCCOC(=O)N1CC[C@@](N[*:1])(C(=O)[*:2])C1; B5(32) = 2-amino-2-(pent-4-en-1-yl)hept-6-enoic acid (bis-4-pentenylglycine, two alkene side chains), C=CCCCC(CCCC=C)(N[*:1])C(=O)[*:2]; B5(4) = 2,2-bis(4-pentenyl)glycine = 2-amino-2-(pent-4-en-1-yl)hept-6-enoic acid (stitching residue), C=CCCCC(CCCC=C)(N[*:1])C(=O)[*:2]; PyrS2 = (S)-3-amino-1-((pent-4-en-1-yloxy)carbonyl)pyrrolidine-3-carboxylic acid, C=CCCCOC(=O)N1CC[C@@](N[*:1])(C(=O)[*:2])C1; 3Br4FF = (S)-2-amino-3-(3-bromo-4-fluorophenyl)propanoic acid, O=C([C@H](Cc1ccc(F)c(Br)c1)N[*:1])[*:2]; B5(3) = 2,2-bis(4-pentenyl)glycine (stitching residue), C=CCCCC(CCCC=C)(N[*:1])C(=O)[*:2]; Phe(3-COOH) = N[C@@H](Cc1cccc(C(=O)O)c1)C(=O)O; Phe(2-CF3) = N[C@@H](Cc1ccccc1C(F)(F)F)C(=O)O; Phe(3,4-Me2) = Cc1ccc(C[C@H](N)C(=O)O)cc1C; Phe(2-Cl) = N[C@@H](Cc1ccccc1Cl)C(=O)O; Phe(4-Me) = Cc1ccc(C[C@H](N)C(=O)O)cc1; 2Nal = N[C@@H](Cc1ccc2ccccc2c1)C(=O)O; Phe(2-Me) = Cc1ccccc1C[C@H](N)C(=O)O; Bta = N[C@@H](Cc1csc2ccccc12)C(=O)O; αAllylPro = C=CC[C@@]1(C(=O)O)CCCN1; tBuAla = CC(C)(C)C[C@H](N)C(=O)O; 3Thi = N[C@@H](Cc1ccsc1)C(=O)O; S8 = C=CCCCCCC[C@](C)(N)C(=O)O; Aib = CC(C)(N)C(=O)O; BrAc = O=C(CBr)*
biological target: full-length beta-Catenin (Uniprot ID P35222) (Homo sapiens (Human)) (UniProt P35222); experiment: fluorescence polarization competition; full-length beta-catenin, 5FAM-TCF4(10-53) probe
Target sequence in this assay (P35222 2-781 limits assumed): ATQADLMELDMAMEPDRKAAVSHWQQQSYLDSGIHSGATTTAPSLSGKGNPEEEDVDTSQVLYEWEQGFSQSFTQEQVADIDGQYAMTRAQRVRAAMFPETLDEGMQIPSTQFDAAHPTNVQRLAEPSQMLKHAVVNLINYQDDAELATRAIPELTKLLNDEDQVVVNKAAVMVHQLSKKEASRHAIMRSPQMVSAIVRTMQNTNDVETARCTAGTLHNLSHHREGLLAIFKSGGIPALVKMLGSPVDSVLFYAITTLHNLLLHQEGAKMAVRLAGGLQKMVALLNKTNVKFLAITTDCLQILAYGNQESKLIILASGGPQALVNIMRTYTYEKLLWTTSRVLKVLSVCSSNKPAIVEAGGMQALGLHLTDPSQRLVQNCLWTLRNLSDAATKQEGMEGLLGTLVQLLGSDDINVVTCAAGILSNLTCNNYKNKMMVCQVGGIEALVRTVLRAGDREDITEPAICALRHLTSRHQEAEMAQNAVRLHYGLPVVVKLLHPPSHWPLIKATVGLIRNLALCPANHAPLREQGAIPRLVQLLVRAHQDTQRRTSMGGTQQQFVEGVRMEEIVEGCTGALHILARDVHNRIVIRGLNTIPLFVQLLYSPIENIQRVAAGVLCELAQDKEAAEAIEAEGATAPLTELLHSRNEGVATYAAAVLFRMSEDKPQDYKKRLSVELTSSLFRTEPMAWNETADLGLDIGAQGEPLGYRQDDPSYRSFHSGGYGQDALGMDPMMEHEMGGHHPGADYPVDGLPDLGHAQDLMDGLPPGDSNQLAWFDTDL

| Binder | IC50 [nM] |
| --- | --- |
| Ac-[αAllylPro]D[tBuAla][B5(3)]NTAAFN[PyrS2″][3Thi][Bta]W-NH2 (staple 1-4, 4-11; also: earlier eluting HPLC isomer) [I-2138] | 1010 |

biological target: full-length beta-Catenin (Uniprot ID P35222) (Homo sapiens (Human)) (UniProt P35222); experiment: fluorescence polarization competition; full-length beta-catenin, competitor probe 5FAM-TCF4(10-53)
Target sequence in this assay (P35222 whole entry): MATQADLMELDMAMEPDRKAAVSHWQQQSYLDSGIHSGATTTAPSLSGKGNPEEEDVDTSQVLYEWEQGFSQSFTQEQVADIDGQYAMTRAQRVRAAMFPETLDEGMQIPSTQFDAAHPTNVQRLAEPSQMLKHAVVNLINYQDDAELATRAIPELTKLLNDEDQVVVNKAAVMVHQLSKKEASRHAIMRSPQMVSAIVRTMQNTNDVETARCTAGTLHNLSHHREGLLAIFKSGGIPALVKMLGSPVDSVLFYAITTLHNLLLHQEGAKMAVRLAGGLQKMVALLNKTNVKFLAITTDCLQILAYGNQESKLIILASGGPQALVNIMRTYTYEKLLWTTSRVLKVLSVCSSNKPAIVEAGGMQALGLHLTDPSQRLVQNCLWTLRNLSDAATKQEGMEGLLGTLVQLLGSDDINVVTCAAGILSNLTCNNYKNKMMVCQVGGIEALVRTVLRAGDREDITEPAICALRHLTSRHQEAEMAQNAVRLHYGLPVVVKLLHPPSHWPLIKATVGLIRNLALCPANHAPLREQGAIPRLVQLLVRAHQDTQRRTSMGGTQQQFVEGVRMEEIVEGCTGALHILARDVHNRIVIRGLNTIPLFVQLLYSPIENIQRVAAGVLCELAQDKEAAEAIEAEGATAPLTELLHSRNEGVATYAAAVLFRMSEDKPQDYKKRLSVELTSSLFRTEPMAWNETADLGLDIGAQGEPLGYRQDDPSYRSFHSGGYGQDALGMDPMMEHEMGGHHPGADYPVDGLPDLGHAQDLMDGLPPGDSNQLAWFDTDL

| Binder | IC50 [nM] |
| --- | --- |
| Ac-[αAllylPro]D[tBuAla][B5(3)]D[Phe(3-COOH)]AAFL[PyrS2″][3Thi][Bta]NAAAAAAAAA-NH2 (staple 1-4, 4-11) [I-2270] | 40 |
| Ac-[αAllylPro]D[tBuAla][B5(4)]D[Phe(3-COOH)]AAFL[PyrS2][Phe(2-CF3)][Phe(3,4-Me2)]S-NH2 (staple 1-4, 4-11) [I-2293] | 15 |
| Ac-[αAllylPro]D[tBuAla][B5(4)]D[Phe(3-COOH)]AAFL[PyrS2][3Thi][3Br4FF]Q-NH2 (staple 1-4, 4-11) [I-2287] | 7 |
| Ac-[αAllylPro]D[tBuAla][B5(32)]D[Phe(3-COOH)]AAFL[PyrS2][3Thi][Bta]NLLL-NH2 (staple 1-4, 4-11; also: later eluting staple isomer (HPLC peak)) [I-2276] | 158 |
| Ac-[αAllylPro]D[tBuAla][B5(4)]D[Phe(3-COOH)]AAFL[PyrS2][3Thi][Bta]NALALALA-NH2 (staple 1-4, 4-11; also: later eluting staple isomer) [I-2284] | 2680 |
| Ac-[αAllylPro]D[tBuAla][B5(4)]D[Phe(3-COOH)]AAFL[PyrS2][Phe(2-CF3)][3Br4FF]S-NH2 (staple 1-4, 4-11) [I-2289] | 8 |
| Ac-[αAllylPro]D[tBuAla][B5(32)]D[Phe(3-COOH)]AAFL[PyrS2][3Thi][Bta]NLLL-NH2 (staple 1-4, 4-11; also: earlier eluting staple isomer (HPLC peak)) [I-2275] | 117 |
| Ac-[αAllylPro]D[tBuAla][B5(3)]D[Phe(3-COOH)]AAFL[PyrS2″][3Thi][Bta]NAAAAAAA-NH2 (staple 1-4, 4-11) [I-2269] | 20 |
| Ac-[αAllylPro]D[tBuAla][B5(3)]D[Phe(3-COOH)]AAFL[PyrS2″][3Thi][Bta]NA[Aib]A[Aib]A[Aib]A-NH2 (staple 1-4, 4-11) [I-2273] | 107 |
| BrAc-[αAllylPro]D[tBuAla][B5(4)]D[Phe(3-COOH)]AAFL[PyrS2][Phe(2-Cl)][Bta]A-NH2 (staple 1-4, 4-11) [I-2286] | 88 |
| Ac-[αAllylPro]D[tBuAla][B5(4)]D[Phe(3-COOH)]AAFL[PyrS2][3Thi][Bta]NALALA-NH2 (staple 1-4, 4-11; also: earlier eluting staple isomer) [I-2281] | 138 |
| Ac-[αAllylPro]D[tBuAla][B5(4)]D[Phe(3-COOH)]AAFL[PyrS2][3Thi][Bta]NALALA-NH2 (staple 1-4, 4-11; also: later eluting staple isomer) [I-2282] | 156 |
| Ac-[αAllylPro]D[tBuAla][B5(32)]D[Phe(3-COOH)]AAFL[PyrS2][3Thi][Bta]NALL-NH2 (staple 1-4, 4-11; also: later eluting staple isomer) [I-2278] | 120 |
| Ac-[αAllylPro]D[tBuAla][B5(32)]D[Phe(3-COOH)]AAFL[PyrS2][3Thi][Bta]NALL-NH2 (staple 1-4, 4-11; also: earlier eluting staple isomer) [I-2277] | 114 |
| Ac-[αAllylPro]D[tBuAla][B5(4)]D[Phe(3-COOH)]AAFL[PyrS2][3Thi][Bta]NALALALA-NH2 (staple 1-4, 4-11; also: earlier eluting staple isomer) [I-2283] | 2860 |
| Ac-[αAllylPro]D[tBuAla][B5(3)]D[Phe(3-COOH)]AAFL[PyrS2″][3Thi][Bta]NA[Aib]A[Aib]A-NH2 (staple 1-4, 4-11) [I-2272] | 43 |
| Ac-[αAllylPro]D[tBuAla][B5(4)]D[Phe(3-COOH)]QAFL[PyrS2][Phe(2-CF3)][3Br4FF]A-NH2 (staple 1-4, 4-11) [I-2290] | 14 |
| Ac-[αAllylPro]D[tBuAla][B5(4)]D[Phe(3-COOH)]AAFL[PyrS2][3Thi][Phe(3,4-Me2)]Q-NH2 (staple 1-4, 4-11) [I-2291] | 5 |
| Ac-[αAllylPro]D[tBuAla][B5(3)]D[Phe(3-COOH)]AAFL[PyrS2″][3Thi][Bta]NL-NH2 (staple 1-4, 4-11) [I-2274] | 10 |
| BrAc-[αAllylPro]D[tBuAla][B5(32)]DDAAFQ[PyrS2][3Thi][Bta]H-NH2 (staple 1-4, 4-11) [I-2285] | 94 |

biological target: full-length beta-Catenin (Uniprot ID P35222) (Homo sapiens (Human)) (UniProt P35222); experiment: fluorescence polarization competition; 10 nM full-length beta-catenin, competitor 10 nM 5FAM-TCF4(10-53)
Target sequence in this assay (P35222 whole entry): as above

| Binder | EC50 [nM] |
| --- | --- |
| Ac-[αAllylPro]DA[B5(4)]DDAA[2Nal]A[S8]F[Bta]Q-NH2 (staple 1-4, 4-11) [I-370] | 1560 |
| Ac-[αAllylPro]DA[B5(4)]DDAA[Phe(2-Me)]A[S8]F[Bta]Q-NH2 (staple 1-4, 4-11; also: later-eluting staple isomer) [I-366] | 1440 |
| Ac-[αAllylPro]DA[B5(4)]DDAA[Phe(2-Me)]A[S8]F[Bta]Q-NH2 (staple 1-4, 4-11; also: earlier-eluting staple isomer) [I-365] | 2720 |
| Ac-[αAllylPro]DA[B5(4)]DDAAFA[S8][Phe(2-Me)][Bta]Q-NH2 (staple 1-4, 4-11) [I-367] | 177 |
| Ac-[αAllylPro]DA[B5(4)]DDAAFA[S8][Phe(4-Me)][Bta]Q-NH2 (staple 1-4, 4-11) [I-369] | 2310 |

biological target: full-length beta-Catenin (Uniprot ID P35222) (Homo sapiens (Human)) (UniProt P35222); experiment: fluorescence polarization competition; peptide titrated against 10 nM full-length beta-catenin + 10 nM 5FAM-TCF4(10-53)
Target sequence in this assay (P35222 whole entry): as above

| Binder | IC50 [nM] |
| --- | --- |
| Ac-[αAllylPro]DA[B5(4)]DDAA[2Nal]A[S8]F[Bta]Q-NH2 (staple 1-4, 4-11) [I-370] | 1560 |
| Ac-[αAllylPro]DA[B5(4)]DDAA[Phe(2-Me)]A[S8]F[Bta]Q-NH2 (staple 1-4, 4-11; also: later-eluting staple isomer) [I-366] | 1440 |
| Ac-[αAllylPro]DA[B5(4)]DDAA[Phe(2-Me)]A[S8]F[Bta]Q-NH2 (staple 1-4, 4-11; also: earlier-eluting staple isomer) [I-365] | 2720 |
| Ac-[αAllylPro]DA[B5(4)]DDAAFA[S8][Phe(2-Me)][Bta]Q-NH2 (staple 1-4, 4-11) [I-367] | 177 |
| Ac-[αAllylPro]DA[B5(4)]DDAAFA[S8][Phe(4-Me)][Bta]Q-NH2 (staple 1-4, 4-11) [I-369] | 2310 |
